To fix the notation:
T1: RING domain of IRF2BP2 (residues 498-578) (UniProt Q7Z5L9 498-578)
T1 sequence (looked up): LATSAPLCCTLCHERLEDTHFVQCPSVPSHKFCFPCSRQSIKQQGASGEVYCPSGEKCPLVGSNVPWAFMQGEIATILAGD

This test addresses T1, RING domain of IRF2BP2 (residues …). The experiment in a line: ITC. A general note: Isothermal titration calorimetry measures the heat released or taken up as one component is titrated into another.
In general, Kd refers to the constant that tells how readily two partners part at equilibrium. A higher Kd goes with a looser complex. Molecule RSSVITSA [RxSVI motif-containing peptide of ZBTB16 (residues 285-292, RSSVITSA)] registered a Kd of 12.6 µM. The molecule RGSVITSA [mouse ZBTB16 peptide (residues 285-292, RGSVITSA)] returned a Kd of 16.8 µM.

On to ERQQNRPSVITCASAG (peptide, UniProt Q14135 156-171, looked up) [VGLL4-L (residues 156-171)], for which the “fold increase of binding affinity (KD) over the shorter peptide” value was 2.1 fold. In turn, RSVLVHAG [NFAT1 peptide (residues 782-789, RSVLVHAG)] yielded a Kd of 514 µM. In turn, RASVIKKT [IRF2 peptide (residues 331-338, RASVIKKT)] showed a Kd of 6.45 µM. With GPGTPTRSSVITSARELHYG (peptide, UniProt Q05516 279-298, looked up) [ZBTB16-L (residues 279-298)], the Kd came out at 7.21 µM.

For the molecule RPDRETRASVIKKTSDITQ (peptide, UniProt P14316 325-343, looked up) [IRF2-L (residues 325-343)], the “fold increase of binding affinity (KD) over the shorter peptide” value is 3.9 fold.

The values are drawn from paper PMC11608337 (Nature Communications, 2024).
